# Experimental data taken from US20240115729A1, “COMPOSITIONS AND METHODS FOR TARGETED ANTIFIBROTIC THERAPY IN CHRONIC PANCREATITIS” (University of Virginia Patent Foundation, priority 2021, published 2024).
# What was measured:
# Assay in all cases: IF colocalization (JACoP) of VT680 phage with marker, CP mouse pancreas sections
# collagen IIIa (mouse) = collagen IIIa (mouse) (UniProt P08121)
# CD31 (mouse) = CD31 (mouse) (UniProt Q08481)
# [1] = target: carboxypeptidase A1 (CPA1) (mouse) (UniProt Q7TPZ8)
# [2] = target: cytokeratin 7 (CK-7) (mouse) (UniProt Q9DCV7)
# F4/80 (mouse) = F4/80 (mouse) (UniProt Q61549)
# UniProt Q61549, sequence (Q61549 28-931): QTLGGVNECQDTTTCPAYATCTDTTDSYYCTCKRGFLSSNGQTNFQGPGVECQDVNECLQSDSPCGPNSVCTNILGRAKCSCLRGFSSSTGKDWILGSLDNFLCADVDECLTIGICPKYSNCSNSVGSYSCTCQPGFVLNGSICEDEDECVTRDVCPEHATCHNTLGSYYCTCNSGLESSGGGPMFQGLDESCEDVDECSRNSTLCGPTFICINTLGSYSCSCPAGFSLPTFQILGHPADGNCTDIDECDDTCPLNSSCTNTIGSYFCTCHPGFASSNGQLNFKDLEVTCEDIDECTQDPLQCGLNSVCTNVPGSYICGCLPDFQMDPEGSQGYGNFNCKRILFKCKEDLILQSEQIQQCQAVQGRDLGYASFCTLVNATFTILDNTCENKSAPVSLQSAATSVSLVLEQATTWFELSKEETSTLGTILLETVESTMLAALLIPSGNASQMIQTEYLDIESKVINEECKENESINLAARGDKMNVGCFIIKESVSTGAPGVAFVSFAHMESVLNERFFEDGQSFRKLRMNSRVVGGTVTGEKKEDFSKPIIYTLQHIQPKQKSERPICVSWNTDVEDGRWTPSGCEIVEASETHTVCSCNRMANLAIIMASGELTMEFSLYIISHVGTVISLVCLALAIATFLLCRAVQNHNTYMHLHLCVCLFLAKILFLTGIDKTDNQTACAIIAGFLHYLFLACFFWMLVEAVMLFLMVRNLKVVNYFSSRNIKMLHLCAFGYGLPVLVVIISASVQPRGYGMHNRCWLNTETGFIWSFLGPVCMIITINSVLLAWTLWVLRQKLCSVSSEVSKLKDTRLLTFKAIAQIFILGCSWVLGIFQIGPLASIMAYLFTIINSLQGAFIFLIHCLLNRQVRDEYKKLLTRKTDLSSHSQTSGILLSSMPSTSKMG
# UniProt P08121, sequence (P08121 155-1219): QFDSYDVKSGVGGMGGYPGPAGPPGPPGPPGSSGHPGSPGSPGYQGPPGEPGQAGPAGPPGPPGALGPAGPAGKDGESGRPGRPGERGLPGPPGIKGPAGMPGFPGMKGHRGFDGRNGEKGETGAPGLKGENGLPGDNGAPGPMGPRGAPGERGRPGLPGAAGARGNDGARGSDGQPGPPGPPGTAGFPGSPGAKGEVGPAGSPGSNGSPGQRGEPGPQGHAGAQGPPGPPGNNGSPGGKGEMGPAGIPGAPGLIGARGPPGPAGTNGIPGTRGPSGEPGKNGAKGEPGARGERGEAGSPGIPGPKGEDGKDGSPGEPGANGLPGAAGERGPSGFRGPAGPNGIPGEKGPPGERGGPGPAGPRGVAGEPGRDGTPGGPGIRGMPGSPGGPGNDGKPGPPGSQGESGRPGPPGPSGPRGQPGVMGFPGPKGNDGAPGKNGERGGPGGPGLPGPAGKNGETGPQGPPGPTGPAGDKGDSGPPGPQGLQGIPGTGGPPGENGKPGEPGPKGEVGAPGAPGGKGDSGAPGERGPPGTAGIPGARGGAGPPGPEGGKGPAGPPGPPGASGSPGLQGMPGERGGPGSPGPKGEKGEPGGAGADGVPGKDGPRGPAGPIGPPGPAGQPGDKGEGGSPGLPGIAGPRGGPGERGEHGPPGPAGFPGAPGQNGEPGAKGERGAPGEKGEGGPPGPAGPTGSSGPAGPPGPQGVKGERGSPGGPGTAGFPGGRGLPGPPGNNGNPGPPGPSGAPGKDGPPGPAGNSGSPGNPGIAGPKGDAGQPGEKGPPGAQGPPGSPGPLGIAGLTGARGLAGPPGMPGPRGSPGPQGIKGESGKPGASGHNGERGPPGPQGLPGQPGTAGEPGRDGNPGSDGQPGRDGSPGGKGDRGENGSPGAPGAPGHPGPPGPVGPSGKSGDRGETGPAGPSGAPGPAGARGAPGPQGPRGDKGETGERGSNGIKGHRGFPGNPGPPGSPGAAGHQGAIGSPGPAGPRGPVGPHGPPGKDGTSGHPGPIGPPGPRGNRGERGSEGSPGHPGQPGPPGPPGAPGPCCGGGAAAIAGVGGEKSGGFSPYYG
# UniProt Q7TPZ8, sequence (Q7TPZ8 111-419): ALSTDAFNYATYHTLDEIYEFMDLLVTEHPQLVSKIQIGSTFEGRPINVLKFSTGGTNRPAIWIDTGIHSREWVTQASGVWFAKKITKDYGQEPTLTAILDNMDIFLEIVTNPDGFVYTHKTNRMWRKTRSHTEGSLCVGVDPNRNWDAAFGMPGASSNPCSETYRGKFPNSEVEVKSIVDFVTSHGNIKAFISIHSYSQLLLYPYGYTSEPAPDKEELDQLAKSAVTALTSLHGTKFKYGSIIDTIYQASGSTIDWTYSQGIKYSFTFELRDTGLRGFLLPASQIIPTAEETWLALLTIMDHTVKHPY
# UniProt Q08481, sequence (Q08481 18-727): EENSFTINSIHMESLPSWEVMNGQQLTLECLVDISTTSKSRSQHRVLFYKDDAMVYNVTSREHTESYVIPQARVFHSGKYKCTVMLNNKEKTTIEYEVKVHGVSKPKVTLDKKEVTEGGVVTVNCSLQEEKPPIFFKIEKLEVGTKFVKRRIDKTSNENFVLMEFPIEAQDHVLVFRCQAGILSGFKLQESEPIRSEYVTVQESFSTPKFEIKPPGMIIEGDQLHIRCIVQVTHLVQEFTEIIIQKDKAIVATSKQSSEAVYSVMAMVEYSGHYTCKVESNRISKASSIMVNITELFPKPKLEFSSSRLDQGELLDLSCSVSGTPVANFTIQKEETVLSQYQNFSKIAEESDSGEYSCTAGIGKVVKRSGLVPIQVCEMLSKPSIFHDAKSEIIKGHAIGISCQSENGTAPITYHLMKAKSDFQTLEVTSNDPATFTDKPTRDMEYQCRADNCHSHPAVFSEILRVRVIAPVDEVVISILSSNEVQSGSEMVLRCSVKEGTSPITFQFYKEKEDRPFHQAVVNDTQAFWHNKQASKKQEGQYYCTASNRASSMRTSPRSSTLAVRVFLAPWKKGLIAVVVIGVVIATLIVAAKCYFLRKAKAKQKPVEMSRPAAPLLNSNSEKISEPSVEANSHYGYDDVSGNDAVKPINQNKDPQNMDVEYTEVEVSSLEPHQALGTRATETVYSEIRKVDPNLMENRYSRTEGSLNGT
# UniProt Q9DCV7, sequence (Q9DCV7 2-457): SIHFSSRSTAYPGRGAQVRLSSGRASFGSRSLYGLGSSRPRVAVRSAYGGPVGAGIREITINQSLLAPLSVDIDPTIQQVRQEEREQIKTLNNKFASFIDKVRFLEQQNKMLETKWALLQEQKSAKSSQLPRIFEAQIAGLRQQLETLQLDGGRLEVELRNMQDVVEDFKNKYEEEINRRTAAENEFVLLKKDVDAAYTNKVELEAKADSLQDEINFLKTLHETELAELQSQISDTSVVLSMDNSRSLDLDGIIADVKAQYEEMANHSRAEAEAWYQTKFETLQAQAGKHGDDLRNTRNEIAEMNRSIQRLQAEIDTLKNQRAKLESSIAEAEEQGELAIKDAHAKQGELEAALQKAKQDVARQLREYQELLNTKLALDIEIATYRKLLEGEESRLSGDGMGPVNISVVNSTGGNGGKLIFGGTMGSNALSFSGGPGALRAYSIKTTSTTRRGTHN
substance,measurement,setting,value
SLTNSSF (SEQ ID NO: 27) phage clone (peptide),"mean Manders' correlation coefficient (MCC), fraction of phage overlapping cell marker",collagen IIIa (mouse),0.33
same,"mean Manders' correlation coefficient (MCC), fraction of phage overlapping cell marker",CD31 (mouse),0.13
same,"mean Manders' correlation coefficient (MCC), fraction of phage overlapping cell marker",[1],0.22
same,"mean Manders' correlation coefficient (MCC), fraction of phage overlapping cell marker",[2],0.11
same,"mean Manders' correlation coefficient (MCC), fraction of phage overlapping cell marker",F4/80 (mouse),0.8
